Results reported in US20210060169A1.
Where a chain is given by its changes, count along the chain named. Values belong to the binder of their own block, whether it stands above or below them.

Key:
human IL-2Rαβγ (human) = human IL-2Rαβγ (human) (UniProt P01589); assay: cell-based or functional assay
human IL-2Rβγ (human) = human IL-2Rβγ (human) (UniProt P14784); assay: cell-based or functional assay
human IL-2Rβγ (human), sequence (P14784 27-551, chain 1 of 2): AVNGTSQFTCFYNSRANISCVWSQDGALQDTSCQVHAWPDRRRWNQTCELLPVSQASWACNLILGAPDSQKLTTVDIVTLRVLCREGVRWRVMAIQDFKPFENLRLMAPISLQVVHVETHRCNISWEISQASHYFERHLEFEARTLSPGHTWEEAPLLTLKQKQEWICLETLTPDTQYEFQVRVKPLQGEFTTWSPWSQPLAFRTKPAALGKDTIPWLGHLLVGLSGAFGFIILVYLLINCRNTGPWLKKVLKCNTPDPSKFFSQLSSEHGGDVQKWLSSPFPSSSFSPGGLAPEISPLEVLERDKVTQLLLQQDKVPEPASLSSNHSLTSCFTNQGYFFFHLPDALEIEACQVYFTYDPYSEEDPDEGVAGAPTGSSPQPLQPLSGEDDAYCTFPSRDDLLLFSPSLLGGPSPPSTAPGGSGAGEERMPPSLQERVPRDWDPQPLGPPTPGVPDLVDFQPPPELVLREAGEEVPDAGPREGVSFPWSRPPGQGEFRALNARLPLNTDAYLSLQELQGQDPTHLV
human IL-2Rβγ (human), sequence (P31785 23-369, chain 2 of 2, further chain): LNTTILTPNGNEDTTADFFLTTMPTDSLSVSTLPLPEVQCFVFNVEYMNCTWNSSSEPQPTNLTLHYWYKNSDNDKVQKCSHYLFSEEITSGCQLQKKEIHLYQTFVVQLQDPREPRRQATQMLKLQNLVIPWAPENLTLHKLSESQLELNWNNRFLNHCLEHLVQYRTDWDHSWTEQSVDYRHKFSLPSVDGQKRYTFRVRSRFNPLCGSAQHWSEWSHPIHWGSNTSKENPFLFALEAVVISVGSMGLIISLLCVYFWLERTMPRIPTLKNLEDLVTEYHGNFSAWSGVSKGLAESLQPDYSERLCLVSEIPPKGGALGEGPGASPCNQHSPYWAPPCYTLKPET

human IL-2Rαβγ (human), sequence (P01589 22-272, chain 1 of 3): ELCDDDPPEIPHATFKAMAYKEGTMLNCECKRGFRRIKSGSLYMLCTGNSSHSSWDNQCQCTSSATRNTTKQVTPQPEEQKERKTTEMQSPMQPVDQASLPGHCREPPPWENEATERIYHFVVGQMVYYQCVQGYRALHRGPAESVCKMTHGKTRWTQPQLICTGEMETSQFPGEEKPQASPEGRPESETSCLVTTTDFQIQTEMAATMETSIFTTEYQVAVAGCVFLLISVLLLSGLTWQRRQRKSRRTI
human IL-2Rαβγ (human), sequence (P14784 27-551, chain 2 of 3, further chain): as the sequence (P14784 27-551, chain 1 of 2) above
human IL-2Rαβγ (human), sequence (P31785 23-369, chain 3 of 3, further chain): as the sequence (P31785 23-369, chain 2 of 2, further chain) above

Standardized EC50 ratio value (human IL-2Rαβγ (human)): > 30
Treg proliferation rate at 650 to 6500 pmol/L (human IL-2Rαβγ (human)): > 80%
B1: 8His-S4(oAzZK)-Li30/F78(oAzZK)-Li30 (ligand)
chain: MHHHHHHHHAPTKSSTKKTQLQLEHLLLDLQMILNGINNYKNPKLTRMLTFKFYMPKKATELKHLQCLEEELKPLEEVLNLAQSKNKHLRPRDLISNINVIVLELKGSETTFMCEYADETATIVEFLNRWITFSQSIISTLT

Standardized EC50 ratio value (human IL-2Rαβγ (human)): > 30
Treg proliferation rate at 650 to 6500 pmol/L (human IL-2Rαβγ (human)): > 80%
NK cell proliferation rate at 65 nmol/L (proliferation medium) (human IL-2Rβγ (human)): < 20%
B2: 8His-S4(oAzZK)-Li30/I129(oAzZK)-Li30 (ligand)
chain: B1 chain with K87F, I138K

Standardized EC50 ratio value (human IL-2Rαβγ (human)): > 30
B3: 8His-S4(oAzZK)-Y50/I129(oAzZK)-Y50 (ligand)
chain: B1 chain with K87F, I138K
